Measured values: paper PMC12142464, “High-light-inducible proteins control associations between chlorophyll synthase and the Photosystem II biogenesis factor Ycf39” (Plant Physiology, 2025)
“And” between values parts separate entries of the source, which are not always exact repeats. Equal entries are not always repeated.

T1: 3xFLAG-tagged chlorophyll synthase ChlG (Synechocystis sp. PCC 6803, UniProt Q55145 1-324)
T1 construct: Chlorophyll synthase ChlG, Synechocystis sp; PCC 6803, made instead of the native enzyme; Isolated complexes carry chlorophyll and carotenoids; also called f.ChlG; FLAG-tagged ChlG
T1 sequence (looked up): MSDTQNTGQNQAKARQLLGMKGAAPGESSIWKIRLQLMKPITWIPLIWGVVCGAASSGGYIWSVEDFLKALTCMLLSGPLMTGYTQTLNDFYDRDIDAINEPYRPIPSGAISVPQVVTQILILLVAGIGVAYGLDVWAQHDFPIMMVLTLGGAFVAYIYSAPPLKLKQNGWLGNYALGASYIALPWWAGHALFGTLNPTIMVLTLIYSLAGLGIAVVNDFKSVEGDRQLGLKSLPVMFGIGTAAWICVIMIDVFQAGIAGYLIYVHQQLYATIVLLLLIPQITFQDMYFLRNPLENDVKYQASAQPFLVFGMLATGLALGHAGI

B1: High-light-inducible protein D (native) (natural protein, UniProt P72932 1-57, looked up)
chain: MSEELQPNQTPVQEDPKFGFNNYAEKLNGRAAMVGFLLILVIEYFTNQGVLAWLGLR
notes: High-light-inducible protein HliD (6.5 kDa), Synechocystis sp; PCC 6803; also called HliD; ScpE; source: endogenous, Synechocystis solubilised membranes

Assays:
Conditions in all cases: partners not purified
[1] = target: T1, 3xFLAG-tagged chlorophyll synthase ChlG; assay: affinity purification with mass spectrometry; f.ChlG anti-FLAG pulldown from f.chlG/ΔchlG cells, HL 16 h; quantitative MS with ^15N-labeled internal standard
[2] = target: T1, 3xFLAG-tagged chlorophyll synthase ChlG; assay: affinity purification with mass spectrometry; f.ChlG anti-FLAG pulldown from f.chlG/ΔchlG cells grown under NL; quantitative MS with ^15N-labeled internal standard
[3] = target: T1, 3xFLAG-tagged chlorophyll synthase ChlG; assay: affinity purification with mass spectrometry; f.ChlG anti-FLAG pulldown from f.chlG/ΔchlG/ΔhliC cells, HL 16 h; quantitative MS with ^15N-labeled internal standard
[4] = target: T1, 3xFLAG-tagged chlorophyll synthase ChlG; assay: affinity purification with mass spectrometry; f.ChlG anti-FLAG pulldown from f.chlG/ΔchlG/ΔhliC cells grown under NL; quantitative MS with ^15N-labeled internal standard
[5] = target: T1, 3xFLAG-tagged chlorophyll synthase ChlG; assay: co-IP; f.ChlG isolated with anti-FLAG resin from membranes solubilised with 1% n-dodecyl-β-D-maltoside and 1% glycol-diosgenin; eluate resolved by 2D CN (A8-35 amphipol)/SDS-PAGE, CBB stain; strains f.chlG/ΔchlG (HL 2 h), f.chlG/ΔchlG/ΔhliC (HL 2 h), f.chlG/ΔchlG/ΔhliC/Δycf39 (NL)
[6] = target: B1; assay: as above

Binder	stoichiometry N [1]	stoichiometry N [2]	stoichiometry N [3]	stoichiometry N [4]	stoichiometry N [5]	stoichiometry N [6]
B1	1.12 per 1 ChlG	1.54 per 1 ChlG	1.51 per 1 ChlG	1.47 per 1 ChlG	~1 HliD per f.ChlG (G-D2-G complex) and ~2 HliD per f.ChlG (G-D2 complex)	–
MNNENSKFGFTAFAENWNGRLAMIGFSSALILELVSGQGVLHFFGIL (natural protein, UniProt P73563 1-47, looked up, High-light-inducible protein HliC (5.2 kDa), Synechocystis sp; PCC 6803; also called HliC; ScpB; source: endogenous, Synechocystis solubilised membranes (high light)) [High-light-inducible protein C (native)]	–	–	–	–	–	~1 HliC per HliD
